A word on the Kd: it is the equilibrium constant for the complex coming apart.

This test has as its target T1, CTpY phosphopeptide (PLCγ1 pTyr783) 779-790 (Homo sapiens, UniProt P19174).
T1 chain: NPGF[pY]VEANPMP
Nature of the test: NMR titration.

Square brackets hold non-standard residues; d marks the D form. Ends that are not written are not given here. pY = N[C@@H](Cc1ccc(OP(=O)(O)O)cc1)C(=O)O

B1: PLCγ1 tandem SH2 (NSH2CSH2ΔCT) nSH2-cSH2 545-770 (protein)
chain: HSNEKWFHGKLGAGRDGRHIAERLLTEYCIETGAPDGSFLVRESETFVGDYTLSFWRNGKVQHCRIHSRQDAGTPKFFLTDNLVFDSLYDLITHYQQVPLRCNEFEMRLSEPVPQTNAHESKEWYHASLTRAQAEHMLMRVPRDGAFLVRKRNEPNSYAISFRAEGKIKHCRVQQEGQTVMLGNSEFDSLVDLISYYEKHPLYRKMKLRYPINEEALEKIGTAEPD
B1 had a Kd of less than 15 µM.
